PMC4926278

Tests used:
[1] = target: Vpu-S52/56D, full-length Vpu (NL4-3) double mutant (HIV-1 strain NL4-3); test: SEC; time-dependent SEC from a stock solution over up to 12 days in 50 mM NaCl buffer; peak area P1/(P1+P2) over time fitted with a logistic growth function (dimer to higher oligomer)
[2] = target: Vpu-S52/56N, full-length Vpu (NL4-3) double mutant (HIV-1 strain NL4-3); test: as above

Substance | growth rate c of the higher oligomer (logistic fit of P1/(P1+P2) over time) [1] [day^−1] | growth rate c of the higher oligomer (logistic fit of P1/(P1+P2) over time) [2] [day^−1]
Vpu-S52/56D, full-length Vpu (NL4-3) double mutant (natural protein) | 0.56 | 
Vpu-S52/56N, full-length Vpu (NL4-3) double mutant (natural protein) |  | 1.05
